Patent US20190218277A1 (Chugai, published 2019)

Assays:
human C1q (Calbiochem) = human C1q (Calbiochem) (human, UniProt P02745 23-245; P02746 28-253; P02747 29-245); test: ELISA: antibody coated on the plate at the concentration shown, human C1q added, detected with HRP anti-human C1q, OD 450 nm
Soluble human FcRn = target: T1, Soluble human FcRn (human, UniProt P55899 24-297; P61769 21-119); test: SPR (Biacore T200, pH 7.4, 25 °C): biotinylated FcRn captured on a CAP chip; antibody injected at 100 nM alone (Ab alone) or as 1:1 complex with trimeric CD154 (CD154 IC); binding level / capture level
T1 construct: also called Biotinylated-FcRn

human FcγRIa = target: T2, human FcγRIa (human, UniProt P12314 16-292); test: SPR (Biacore T200, pH 7.4, 25 °C): His-tagged FcγR captured by anti-His antibody; antibody injected at 100 nM alone (Ab alone) or as 1:1 complex with trimeric CD154 (CD154 IC); binding level / capture level [A]
T2 construct: also called human FcγR1a

human FcγRIIa (167H) = target: T3, human FcγRIIa (167H) (human, UniProt P12318 36-217); test: SPR (Biacore T200, pH 7.4, 25 °C): His-tagged FcγR captured by anti-His antibody; antibody injected at 100 nM alone (Ab alone) or as 1:1 complex with trimeric CD154 (CD154 IC); binding level / capture level [B]
T3 construct: also called human FcγR2a allelic variant 167H
T3 sequence: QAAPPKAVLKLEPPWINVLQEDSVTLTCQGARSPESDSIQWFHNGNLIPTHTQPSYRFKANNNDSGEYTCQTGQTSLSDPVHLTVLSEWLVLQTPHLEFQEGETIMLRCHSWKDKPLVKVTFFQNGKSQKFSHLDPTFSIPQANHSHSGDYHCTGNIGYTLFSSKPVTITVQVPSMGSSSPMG

human FcγRIIIb (NA1) = target: T4, human FcγRIIIb (NA1) (human, UniProt O75015 17-200); test: SPR (Biacore T200, pH 7.4, 25 °C): His-tagged FcγR captured by anti-His antibody; antibody injected at 100 nM alone (Ab alone) or as 1:1 complex with trimeric CD154 (CD154 IC); binding level / capture level [G]
T4 construct: also called human FcγR3b allelic variant NA1
T4 chain: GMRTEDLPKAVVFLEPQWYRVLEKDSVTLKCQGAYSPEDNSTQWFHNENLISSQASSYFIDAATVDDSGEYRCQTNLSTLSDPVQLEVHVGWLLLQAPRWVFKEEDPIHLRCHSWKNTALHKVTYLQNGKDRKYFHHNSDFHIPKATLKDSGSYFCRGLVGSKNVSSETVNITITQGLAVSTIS

human FcγRIIIb (NA2) = target: T5, human FcγRIIIb (NA2) (human, UniProt O75015 17-200); test: SPR (Biacore T200, pH 7.4, 25 °C): His-tagged FcγR captured by anti-His antibody; antibody injected at 100 nM alone (Ab alone) or as 1:1 complex with trimeric CD154 (CD154 IC); binding level / capture level [H]
T5 construct: also called human FcγR3b allelic variant NA2
T5 chain: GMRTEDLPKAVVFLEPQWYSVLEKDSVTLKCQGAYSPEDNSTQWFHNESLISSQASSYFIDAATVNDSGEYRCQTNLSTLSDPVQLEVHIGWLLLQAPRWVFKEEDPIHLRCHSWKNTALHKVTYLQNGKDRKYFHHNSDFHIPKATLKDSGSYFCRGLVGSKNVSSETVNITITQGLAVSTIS

mouse FcγRI = target: T6, mouse FcγRI (mouse, UniProt P26151 25-297); test: SPR (Biacore T200, pH 7.4, 25 °C): His-tagged FcγR captured by anti-His antibody; antibody injected at 100 nM alone (Ab alone) or as 1:1 complex with trimeric CD154 (CD154 IC); binding level / capture level [A]
T6 construct: also called mFcγRI; mouse FcγR1
T6 sequence: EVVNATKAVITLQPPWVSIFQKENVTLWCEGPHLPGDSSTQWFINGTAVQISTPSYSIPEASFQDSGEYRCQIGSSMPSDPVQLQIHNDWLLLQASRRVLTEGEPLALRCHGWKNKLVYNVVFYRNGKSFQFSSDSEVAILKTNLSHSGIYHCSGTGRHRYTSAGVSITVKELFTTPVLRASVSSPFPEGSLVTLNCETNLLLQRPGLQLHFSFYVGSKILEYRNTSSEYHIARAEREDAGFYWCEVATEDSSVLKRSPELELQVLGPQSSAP

mouse FcγRIIb = target: T7, mouse FcγRIIb (mouse, UniProt P08101 30-210); test: SPR (Biacore T200, pH 7.4, 25 °C): His-tagged FcγR captured by anti-His antibody; antibody injected at 100 nM alone (Ab alone) or as 1:1 complex with trimeric CD154 (CD154 IC); binding level / capture level [B]
T7 construct: also called mFcγRIIb; mouse FcγR2b
T7 sequence: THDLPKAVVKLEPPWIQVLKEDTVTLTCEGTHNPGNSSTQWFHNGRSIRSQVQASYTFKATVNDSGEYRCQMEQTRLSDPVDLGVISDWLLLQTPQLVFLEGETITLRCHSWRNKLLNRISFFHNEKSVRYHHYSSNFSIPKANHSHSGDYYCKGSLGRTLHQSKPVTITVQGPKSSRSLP

mouse FcγRIII = target: T8, mouse FcγRIII (mouse, UniProt P08508 31-215); test: SPR (Biacore T200, pH 7.4, 25 °C): His-tagged FcγR captured by anti-His antibody; antibody injected at 100 nM alone (Ab alone) or as 1:1 complex with trimeric CD154 (CD154 IC); binding level / capture level [C]
T8 construct: also called mFcγRIII; mouse FcγR3
T8 chain: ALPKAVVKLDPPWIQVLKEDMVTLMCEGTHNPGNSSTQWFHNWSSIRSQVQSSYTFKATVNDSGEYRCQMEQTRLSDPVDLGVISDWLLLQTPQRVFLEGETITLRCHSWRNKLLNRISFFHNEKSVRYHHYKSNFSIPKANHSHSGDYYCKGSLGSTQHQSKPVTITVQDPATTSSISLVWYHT

human FcγRIIIa (158V) = target: T9, human FcγRIIIa (158V) (human, UniProt P08637 17-208); test: SPR (Biacore T200, pH 7.4, 25 °C): His-tagged FcγR captured by anti-His antibody; antibody injected at 100 nM alone (Ab alone) or as 1:1 complex with trimeric CD154 (CD154 IC); binding level / capture level [F]
T9 construct: also called human FcγR3a allelic variant 158V
T9 sequence (P08637 other isoform, or with tags, fused parts or gaps limits assumed): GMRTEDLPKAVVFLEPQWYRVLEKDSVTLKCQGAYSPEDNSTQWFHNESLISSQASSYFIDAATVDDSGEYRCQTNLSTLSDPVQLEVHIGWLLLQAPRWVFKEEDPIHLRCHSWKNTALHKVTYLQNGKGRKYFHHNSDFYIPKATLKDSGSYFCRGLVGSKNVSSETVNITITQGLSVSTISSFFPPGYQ

T1 sequence (P55899 24-297 limits assumed, chain 1 of 2): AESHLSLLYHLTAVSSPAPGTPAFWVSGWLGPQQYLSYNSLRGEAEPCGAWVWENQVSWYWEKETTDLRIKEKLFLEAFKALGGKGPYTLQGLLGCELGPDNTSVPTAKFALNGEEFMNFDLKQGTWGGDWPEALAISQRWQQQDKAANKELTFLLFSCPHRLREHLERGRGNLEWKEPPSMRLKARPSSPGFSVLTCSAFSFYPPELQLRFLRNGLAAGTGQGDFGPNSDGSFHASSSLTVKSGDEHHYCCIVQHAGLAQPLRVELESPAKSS
T1 sequence (P61769 21-119 limits assumed, chain 2 of 2): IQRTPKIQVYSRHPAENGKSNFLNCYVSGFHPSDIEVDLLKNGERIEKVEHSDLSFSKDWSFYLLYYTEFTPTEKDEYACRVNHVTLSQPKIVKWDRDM
Chain of human C1q (Calbiochem) (P02745 23-245 limits assumed, chain 1 of 3): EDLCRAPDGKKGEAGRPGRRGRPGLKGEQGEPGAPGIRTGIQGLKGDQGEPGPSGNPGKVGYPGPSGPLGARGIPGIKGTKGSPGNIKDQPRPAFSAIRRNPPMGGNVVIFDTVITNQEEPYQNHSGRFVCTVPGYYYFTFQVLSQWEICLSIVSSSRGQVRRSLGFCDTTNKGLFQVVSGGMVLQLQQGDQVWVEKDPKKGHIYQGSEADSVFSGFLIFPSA
Chain of human C1q (Calbiochem) (P02746 28-253 limits assumed, chain 2 of 3): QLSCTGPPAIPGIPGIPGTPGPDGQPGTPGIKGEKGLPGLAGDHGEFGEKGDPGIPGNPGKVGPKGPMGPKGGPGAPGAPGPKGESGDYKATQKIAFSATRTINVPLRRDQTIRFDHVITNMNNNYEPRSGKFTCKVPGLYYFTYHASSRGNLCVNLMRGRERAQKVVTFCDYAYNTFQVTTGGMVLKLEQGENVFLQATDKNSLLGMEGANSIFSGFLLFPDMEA
Chain of human C1q (Calbiochem) (P02747 29-245 limits assumed, chain 3 of 3): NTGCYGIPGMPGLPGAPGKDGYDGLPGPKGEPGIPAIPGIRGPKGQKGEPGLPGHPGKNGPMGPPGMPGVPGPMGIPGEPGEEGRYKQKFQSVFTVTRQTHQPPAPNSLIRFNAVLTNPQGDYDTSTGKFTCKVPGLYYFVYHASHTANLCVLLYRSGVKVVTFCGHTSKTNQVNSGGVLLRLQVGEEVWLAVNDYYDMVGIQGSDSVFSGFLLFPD
T2 sequence (P12314 16-292 limits assumed): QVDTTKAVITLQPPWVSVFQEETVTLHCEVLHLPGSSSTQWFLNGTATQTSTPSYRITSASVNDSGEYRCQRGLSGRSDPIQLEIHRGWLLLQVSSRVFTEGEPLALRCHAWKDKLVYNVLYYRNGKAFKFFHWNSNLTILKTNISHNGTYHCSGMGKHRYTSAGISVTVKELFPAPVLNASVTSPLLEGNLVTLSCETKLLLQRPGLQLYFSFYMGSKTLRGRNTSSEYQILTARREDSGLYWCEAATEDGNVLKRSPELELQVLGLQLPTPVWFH

Row | Binder | binding result (human C1q (Calbiochem)) | binding result (Soluble human FcRn) | binding result (human FcγRIa) | binding result (human FcγRIIa (167H)) | binding result (human FcγRIIIb (NA1)) | binding result (human FcγRIIIb (NA2)) | binding result (mouse FcγRI) | binding result (mouse FcγRIIb) | binding result (mouse FcγRIII) | binding result (human FcγRIIIa (158V))
1 | Anti-CD154 antibody (SLAPH0336a/SLAPL0336a) with Fc variant LALA+ACT3 (SG1044) (antibody) heavy: EVQLVESGGGSVKPGGSLKLSCAASGFTFSDHYMYWVRQTPEKRLEWVAIISGGGSYTSYPDSMKGRFTISRDNAKNILHLQMSSLKSEDTAMYYCTRESNGKPGFAYWGQGTLVTVSAASTKGPSVFPLAPSSKSTSGGTAALGCLVKDYFPEPVTVSWNSGALTSGVHTFPAVLQSSGLYSLSSVVTVPSSSLGTQTYICNVNHKPSNTKVDKRVEPKSCDKTHTCPPCPAPEAAGGPSVFLFPPKPKDTLMISRTPEVTCVVVDVSHEDPEVKFNWYVDGVEVHNAKTKPREEQYNSTYRVVSVLTVLHQDWLNGKEYKCKVSNKALPAPIEKTISKAKGQPREPQVYTLPPSREEMTKNQVSLTCLVKGFYPSDIAVEWESNGQPENNYKTTPPVLDSDGSFFLYSKLTVDKSRWQQGNVFSCSVLHEALHAHTTRKELSLSP light: not shown | binds | binds | binds | no binding (tested: 100 nM) | no binding (tested: 100 nM) | no binding (tested: 100 nM) | no binding (tested: 100 nM) | no binding (tested: 100 nM) | no binding (tested: 100 nM) | 
2 | Anti-CD154 antibody (SLAPH0336a/SLAPL0336a) with Fc variant LALA+ACT3+KAES (SG1105) (antibody, also called LALA+KAES+ACT3) heavy: EVQLVESGGGSVKPGGSLKLSCAASGFTFSDHYMYWVRQTPEKRLEWVAIISGGGSYTSYPDSMKGRFTISRDNAKNILHLQMSSLKSEDTAMYYCTRESNGKPGFAYWGQGTLVTVSAASTKGPSVFPLAPSSKSTSGGTAALGCLVKDYFPEPVTVSWNSGALTSGVHTFPAVLQSSGLYSLSSVVTVPSSSLGTQTYICNVNHKPSNTKVDKRVEPKSCDKTHTCPPCPAPEAAGGPSVFLFPPKPKDTLMISRTPEVTCVVVDVSHEDPEVKFNWYVDGVEVHNAKTKPREEQYNSTYRVVSVLTVLHQDWLNGKEYKCKVSNAALPAPISKTISKAKGQPREPQVYTLPPSREEMTKNQVSLTCLVKGFYPSDIAVEWESNGQPENNYKTTPPVLDSDGSFFLYSKLTVDKSRWQQGNVFSCSVLHEALHAHTTRKELSLSP light: not shown | binds | binds | binds | no binding (tested: 100 nM) | no binding (tested: 100 nM) | no binding (tested: 100 nM) | no binding (tested: 100 nM) | no binding (tested: 100 nM) | no binding (tested: 100 nM) | binds
3 | Anti-CD154 antibody (SLAPH0336a/SLAPL0336a) with Fc variant LALA+ACT5+KAES (SG1106) (antibody, also called LALA+KAES+ACT5) heavy: EVQLVESGGGSVKPGGSLKLSCAASGFTFSDHYMYWVRQTPEKRLEWVAIISGGGSYTSYPDSMKGRFTISRDNAKNILHLQMSSLKSEDTAMYYCTRESNGKPGFAYWGQGTLVTVSAASTKGPSVFPLAPSSKSTSGGTAALGCLVKDYFPEPVTVSWNSGALTSGVHTFPAVLQSSGLYSLSSVVTVPSSSLGTQTYICNVNHKPSNTKVDKRVEPKSCDKTHTCPPCPAPEAAGGPSVFLFPPKPKDTLMISRTPEVTCVVVDVSHEDPEVKFNWYVDGVEVHNAKTKPREEQYNSTYRVVSVLTVLHQDWLNGKEYKCKVSNAALPAPISKTISKAKGQPREPQVYTLPPSREEMTKNQVSLTCLVKGFYPSDIAVEWESNGQPENNYKTTPPVLDSDGSFFLYSKLTVDKSRWQQGNVFSCSVLHEALHAHYTRKELSLSP light: not shown | binds | binds | binds | no binding (tested: 100 nM) | no binding (tested: 100 nM) | no binding (tested: 100 nM) | no binding (tested: 100 nM) | no binding (tested: 100 nM) | no binding (tested: 100 nM) | binds
4 | Anti-CD154 antibody (SLAPH0336a/SLAPL0336a) with Fc variant LALA+ACT5 (SG1045) (antibody) heavy: EVQLVESGGGSVKPGGSLKLSCAASGFTFSDHYMYWVRQTPEKRLEWVAIISGGGSYTSYPDSMKGRFTISRDNAKNILHLQMSSLKSEDTAMYYCTRESNGKPGFAYWGQGTLVTVSAASTKGPSVFPLAPSSKSTSGGTAALGCLVKDYFPEPVTVSWNSGALTSGVHTFPAVLQSSGLYSLSSVVTVPSSSLGTQTYICNVNHKPSNTKVDKRVEPKSCDKTHTCPPCPAPEAAGGPSVFLFPPKPKDTLMISRTPEVTCVVVDVSHEDPEVKFNWYVDGVEVHNAKTKPREEQYNSTYRVVSVLTVLHQDWLNGKEYKCKVSNKALPAPIEKTISKAKGQPREPQVYTLPPSREEMTKNQVSLTCLVKGFYPSDIAVEWESNGQPENNYKTTPPVLDSDGSFFLYSKLTVDKSRWQQGNVFSCSVLHEALHAHYTRKELSLSP light: not shown | binds | binds | binds | no binding (tested: 100 nM) | no binding (tested: 100 nM) | no binding (tested: 100 nM) | no binding (tested: 100 nM) | no binding (tested: 100 nM) | no binding (tested: 100 nM) | binds
